The values below come from US20250018038A1 (UNIVERSITY OF CHICAGO, published 2025).

For assay [1], the target named is T1, cell surface survivin on cancer cells (human, UniProt O15392 1-142).
T1 construct: whole, on cells
In words: flow cytometry of live cells, 200 nM Fab, anti-human F(ab')2-A647 secondary. As for the experimental part:
(§1) Human or murine tumor cells were trypsinized, washed and resuspended in Flow buffer (1×PBS supplemented with 2% FBS) and added to a 96-well plate (#3799, Costar). 200 nM primary CPC Fab was mixed with 0.5M cells and incubated at 37 C for 20 min. […] Samples were analyzed by flow cytometry using CytoFLEX (Beckman Coulter) and mean fluorescence intensity (MFI) data was extracted using the FlowJo software (FIG. 5A-E, FIG. 6). Human peripheral blood mononuclear cells (PBMCs) derived from a single patient were used as a source of healthy human cells. PBMCs were counted, split and spun down 400×g 5 min. Cells were resuspended in Flow buffer (1×PBS supplemented with 2% FBS) and pre-incubated with TruStain FcX (1:20, Biolegend 422302) for 10 min at 37 C, followed by 200 nM primary Fab incubation at 37 for 20 min. […] Mean fluorescence intensity (MFI) data was extracted using the FlowJo software (FIG. 5F).

The target of assay [2] is T2, Survivin (purified recombinant Survivin protein) (human, UniProt O15392 1-140, limits assumed, biotinylated on the Avi-tag by BirA (antigens for selection and ELISA)).
T2 construct: also called Baculoviral IAP repeat-containing protein 5; BIRC5
In words: multipoint protein ELISA: 50 nM immobilised target, 3-fold serial dilutions of purified Fab, protein L-HRP, sigmoidal fit. On the procedure: Protein based multipoint ELISA was performed to estimate the affinity of the generated unique Fabs to their cognate antigens. A fixed concentration of the immobilized target (50 nM) on ELISA plate was incubated with 3-fold serial dilutions of the purified Fabs starting from […] for 15 min. The plates were washed and the bound antigen-Fab complexes were incubated with H1RP-conjugated protein L (1:5000 dilution in PBST). As with phage ELISA, the plates were again washed, developed with TMB substrate and quenched with 1.0 M HCl, and absorbance (A450) was determined. To determine the affinity, the data were fitted in a non-linear sigmoidal function with variable slope in GraphPad PRISM and EC50 value was calculated (FIG. 2).

Assay [3] addresses T2, Survivin (purified recombinant Survivin …). In words: SPR: target immobilised on NTA chip by His-tag, 2-fold serial dilutions of Fab, 1:1 Langmuir fit. As for the experimental part:
The targets were immobilized onto a nitrilotriacetic acid (NTA) sensor chip via His-tag. 2-fold serial dilutions of the Fab were injected following ligand immobilization on the sensor chip. For each kinetic assay at least five dilutions of the Fab were tested. The data were fitted using 1:1 Langmuir Model to obtain the on-rate, off-rate and the affinity (KD) of the Fab-target interaction. (FIG. 4).

Assay [4] has as its target T3, Survivin of murine tumor cells (CT-26, MC-38) (mouse, UniProt O70201).
T3 construct: also called murine survivin
In words: flow cytometry of live murine colon tumor cells, 200 nM Fab, anti-human F(ab')2-A647 secondary. On the procedure: as §1

T2 sequence (O15392 1-140 limits assumed): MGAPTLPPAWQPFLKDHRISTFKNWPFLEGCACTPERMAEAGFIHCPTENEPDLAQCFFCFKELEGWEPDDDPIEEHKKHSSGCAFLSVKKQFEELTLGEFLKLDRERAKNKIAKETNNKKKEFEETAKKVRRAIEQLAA
T3 sequence (O70201 whole entry): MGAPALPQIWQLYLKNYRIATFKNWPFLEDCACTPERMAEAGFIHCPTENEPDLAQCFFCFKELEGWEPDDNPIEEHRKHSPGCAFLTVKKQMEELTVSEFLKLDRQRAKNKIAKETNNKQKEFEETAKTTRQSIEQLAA
T1 sequence (O15392 whole entry): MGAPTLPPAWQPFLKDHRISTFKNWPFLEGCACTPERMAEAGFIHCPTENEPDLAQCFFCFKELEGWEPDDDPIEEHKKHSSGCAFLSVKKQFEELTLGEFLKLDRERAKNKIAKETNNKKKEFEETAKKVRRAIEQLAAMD

B1: SUR-FL-27 (Fab, V domains shown)
VH: EVQLVESGGGLVQPGGSLRLSCAASGFNVYSSYIHWVRQAPGKGLEWVASIYPSSGYTYYADSVKGRFTISADTSKNTAYLQMNSLRAEDTAVYYCARMSYYSWYYHSVYMYGLDYWGQGTLVTVSS
VL: DIQMTQSPSSLSASVGDRVTITCRASQSVSSAVAWYQQKPGKAPKLLIYSASSLYSGVPSRFSGSRSGTDFTLTISSLQPEDFATYYCQQASSDHSLITFGQGTKVEIKR
notes: also called SUR-FL-27 Fab
Consider B1, for which, in assay [1], the binding result is on record as “binds”.

B2: SUR-N-09 (Fab, V domains shown)
VH: EVQLVESGGGLVQPGGSLRLSCAASGFNFYYSSIHWVRQAPGKGLEWVASISPYSGYTSYADSVKGRFTISADTSKNTAYLQMNSLRAEDTAVYYCARYMYYGWALDYWGQGTLVTVSS
VL: DIQMTQSPSSLSASVGDRVTITCRASQSVSSAVAWYQQKPGKAPKLLIYSASSLYSGVPSRFSGSRSGTDFTLTISSLQPEDFATYYCQQGQWWGLITFGQGTKVEIKR
notes: also called SUR-N-09 Fab
In the case of B2, the EC50 in assay [2] was found to be 30 nM.

B3: SUR-FL-22 (Fab, V domains shown)
VH: EVQLVESGGGLVQPGGSLRLSCAASGFNFYSSYIHWVRQAPGKGLEWVASIYSYSSSTSYADSVKGRFTISADTSKNTAYLQMNSLRAEDTAVYYCARAGWYWYYGIQFAFDYWGQGTLVTVSS
VL: DIQMTQSPSSLSASVGDRVTITCRASQSVSSAVAWYQQKPGKAPKLLIYSASSLYSGVPSRFSGSRSGTDFTLTISSLQPEDFATYYCQQQRYGSLITFGQGTKVEIKR
notes: also called SUR-FL-22 Fab
For the molecule B3, the half-maximal effective concentration (EC50) in assay [2] stood at 3 nM.

B4: SUR-N-53 (Fab, V domains shown)
VH: EVQLVESGGGLVQPGGSLRLSCAASGFNVSSSYIHWVRQAPGKGLEWVASIYSYYGSTSYADSVKGRFTISADTSKNTAYLQMNSLRAEDTAVYYCARSFTEKWAYSWAIDYWGQGTLVTVSS
VL: DIQMTQSPSSLSASVGDRVTITCRASQSVSSAVAWYQQKPGKAPKLLIYSASSLYSGVPSRFSGSRSGTDFTLTISSLQPEDFATYYCQQYAWSLFTFGQGTKVEIKR
notes: also called SUR-N-53 Fab
Take B4: the EC50 in assay [2] came out at 100 nM.

B5: SUR-N-07 (Fab, V domains shown)
VH: EVQLVESGGGLVQPGGSLRLSCAASGFNFSSSSIHWVRQAPGKGLEWVASISPYSGYTYYADSVKGRFTISADTSKNTAYLQMNSLRAEDTAVYYCARWYWAYPYWWYAMDYWGQGTLVTVSS
VL: DIQMTQSPSSLSASVGDRVTITCRASQSVSSAVAWYQQKPGKAPKLLIYSASSLYSGVPSRFSGSRSGTDFTLTISSLQPEDFATYYCQQSWGPPVTFGQGTKVEIKR
notes: also called SUR-N-07 Fab
As to B5, the binding result in assay [1] was “binds”.

B6: SUR-N-40 Fab (Fab, V domains shown)
VH: EVQLVESGGGLVQPGGSLRLSCAASGFNFSSSSIHWVRQAPGKGLEWVAYIYPSYGYTSYADSVKGRFTISADTSKNTAYLQMNSLRAEDTAVYYCARSLYSKMWYYGSYYFYQVGLDYWGQGTLVTVSS
VL: DIQMTQSPSSLSASVGDRVTITCRASQSVSSAVAWYQQKPGKAPKLLIYSASSLYSGVPSRFSGSRSGTDFTLTISSLQPEDFATYYCQQGYKYLVTFGQGTKVEIKR
For B6, in assay [2], the EC50 is under 1 nM. Moreover, the Kd in assay [3] came to 2.1 nM. Also, the binding result in assay [4] is “binds”.

B7: SUR-N-36 Fab (Fab, V domains shown)
VH: EVQLVESGGGLVQPGGSLRLSCAASGFNVSYSSIHWVRQAPGKGLEWVASIYPYYGYTSYADSVKGRFTISADTSKNTAYLQMNSLRAEDTAVYYCAREEYSTVQYWYYYWYPGMDYWGQGTLVTVSS
VL: DIQMTQSPSSLSASVGDRVTITCRASQSVSSAVAWYQQKPGKAPKLLIYSASSLYSGVPSRFSGSRSGTDFTLTISSLQPEDFATYYCQQYMYSPITFGQGTKVEIKR
Turning to B7, the concentration giving a half-maximal response (EC50) in assay [2] amounted to 2 nM. In assay [3], the dissociation constant Kd was 4.2 nM. Besides, the binding result in assay [4] was “binds”.

B8: SUR-N-28 (Fab, V domains shown)
VH: EVQLVESGGGLVQPGGSLRLSCAASGFNFSSSYIHWVRQAPGKGLEWVASIYSSYGYTSYADSVKGRFTISADTSKNTAYLQMNSLRAEDTAVYYCARSYYYQYSGGWRGYYHALDYWGQGTLVTVSS
VL: DIQMTQSPSSLSASVGDRVTITCRASQSVSSAVAWYQQKPGKAPKLLIYSASSLYSGVPSRFSGSRSGTDFTLTISSLQPEDFATYYCQQSSSSLITFGQGTKVEIKR
notes: also called SUR-N-28 Fab
As to B8, in assay [2], the concentration for a half-maximal effect (EC50) is 3 nM.

B9: SUR-FL-52 (Fab, V domains shown)
VH: EVQLVESGGGLVQPGGSLRLSCAASGFNFSSSSIHWVRQAPGKGLEWVASIYPYSGSTYYADSVKGRFTISADTSKNTAYLQMNSLRAEDTAVYYCARWDFGYYYWYSAIDYWGQGTLVTVSS
VL: DIQMTQSPSSLSASVGDRVTITCRASQSVSSAVAWYQQKPGKAPKLLIYSASSLYSGVPSRFSGSRSGTDFTLTISSLQPEDFATYYCQQYWYTLITFGQGTKVEIKR
notes: also called SUR-FL-52 Fab
In the case of B9, in assay [1], the binding result was “binds”.

B10: SUR-FL-31 (Fab, V domains shown)
VH: EVQLVESGGGLVQPGGSLRLSCAASGFNFSSSSIHWVRQAPGKGLEWVASISSYSGYTYYADSVKGRFTISADTSKNTAYLQMNSLRAEDTAVYYCARGKQKSYGQWYFYYWAIDYWGQGTLVTVSS
VL: DIQMTQSPSSLSASVGDRVTITCRASQSVSSAVAWYQQKPGKAPKLLIYSASSLYSGVPSRFSGSRSGTDFTLTISSLQPEDFATYYCQQSSSSLITFGQGTKVEIKR
notes: also called SUR-FL-31 Fab
Turning to B10, in assay [2], the EC50 came out at 2 nM.

B11: SUR-FL-47 (Fab, V domains shown)
VH: EVQLVESGGGLVQPGGSLRLSCAASGFNVSYSSIHWVRQAPGKGLEWVASIYSYYGYTSYADSVKGRFTISADTSKNTAYLQMNSLRAEDTAVYYCARWPHYWGQGVSSMDYWGQGTLVTVSS
VL: DIQMTQSPSSLSASVGDRVTITCRASQSVSSAVAWYQQKPGKAPKLLIYSASSLYSGVPSRFSGSRSGTDFTLTISSLQPEDFATYYCQQSYYFPVTFGQGTKVEIKR
notes: also called SUR-FL-47 Fab
With B11, the EC50 in assay [2] came to 29 nM.

B12: SUR-FL-24 (Fab, V domains shown)
VH: EVQLVESGGGLVQPGGSLRLSCAASGFNFYSSSIHWVRQAPGKGLEWVASIYPYYSSTSYADSVKGRFTISADTSKNTAYLQMNSLRAEDTAVYYCARWYHYYSVQQYGLDYWGQGTLVTVSS
VL: DIQMTQSPSSLSASVGDRVTITCRASQSVSSAVAWYQQKPGKAPKLLIYSASSLYSGVPSRFSGSRSGTDFTLTISSLQPEDFATYYCQQSTSFPITFGQGTKVEIKR
notes: also called SUR-FL-24 Fab
For the molecule B12, in assay [2], the EC50 came to 18 nM.

B13: SUR-FL-23 (Fab, V domains shown)
VH: EVQLVESGGGLVQPGGSLRLSCAASGFNFSSSSIHWVRQAPGKGLEWVASISSYSSSTSYADSVKGRFTISADTSKNTAYLQMNSLRAEDTAVYYCARYMVSMWSYSWYVKWYAMDYWGQGTLVTVSS
VL: DIQMTQSPSSLSASVGDRVTITCRASQSVSSAVAWYQQKPGKAPKLLIYSASSLYSGVPSRFSGSRSGTDFTLTISSLQPEDFATYYCQQSSSSLITFGQGTKVEIKR
notes: also called SUR-FL-23 Fab
For B13, the EC50 in assay [2] is 1 nM.

B14: SUR-FL-29 Fab (Fab, V domains shown)
VH: EVQLVESGGGLVQPGGSLRLSCAASGFNVSYYSIHWVRQAPGKGLEWVASIYPYYGSTSYADSVKGRFTISADTSKNTAYLQMNSLRAEDTAVYYCARWQFYGYYHGLYFTDLGIDYWGQGTLVTVSS
VL: DIQMTQSPSSLSASVGDRVTITCRASQSVSSAVAWYQQKPGKAPKLLIYSASSLYSGVPSRFSGSRSGTDFTLTISSLQPEDFATYYCQQSGGFPITFGQGTKVEIKR
For the molecule B14, the binding result in assay [4] and in assay [1] was “binds” in each case.

B15: SUR-FL-25 (Fab, V domains shown)
VH: EVQLVESGGGLVQPGGSLRLSCAASGFNVYSSSIHWVRQAPGKGLEWVASIYPYYSYTSYADSVKGRFTISADTSKNTAYLQMNSLRAEDTAVYYCARWKKSRSGGMWGMDYWGQGTLVTVSS
VL: DIQMTQSPSSLSASVGDRVTITCRASQSVSSAVAWYQQKPGKAPKLLIYSASSLYSGVPSRFSGSRSGTDFTLTISSLQPEDFATYYCQQYSSFPITFGQGTKVEIKR
notes: also called SUR-FL-25 Fab
For the molecule B15, the EC50 in assay [2] came to 10 nM.

B16: SUR-FL-26 (Fab, V domains shown)
VH: EVQLVESGGGLVQPGGSLRLSCAASGFNVSYSSIHWVRQAPGKGLEWVASISPYYGYTYYADSVKGRFTISADTSKNTAYLQMNSLRAEDTAVYYCARWYFEYPYYMWGLDYWGQGTLVTVSS
VL: DIQMTQSPSSLSASVGDRVTITCRASQSVSSAVAWYQQKPGKAPKLLIYSASSLYSGVPSRFSGSRSGTDFTLTISSLQPEDFATYYCQQSYKPPITFGQGTKVEIKR
notes: also called SUR-FL-26 Fab
On to B16, for which, in assay [2], the EC50 is under 1 nM.
